Results on three molecules are retold here after patent US11833164B2, “Methods of treating Fabry disease in patients having a mutation in the GLA gene” (Amicus Therapeutics, Inc., priority 2019, dated 2023).

The assay has as its system mutant form of α-Gal A expressed in HEK-293 cells. Kind of assay: HEK assay (GLP HEK / Migalastat Amenability Assay): α-Gal A activity in lysates of transiently transfected HEK-293 cells incubated with or without 10 μM migalastat. The format is cell-based, human. The note with it: for Absolute increase (% WT): 10 μM migalastat versus baseline; for Relative increase: 10 μM migalastat α-Gal A activity relative to baseline; for 10 μM migalastat α-Gal A activity (% WT): 5 days; for 10 μM migalastat α-Gal A activity (% WT) / Baseline α-Gal A activity (% WT): percentage of baseline wild-type α-Gal A activity; for 10 μM migalastat α-Gal A activity (% WT) / Baseline α-Gal A activity (% WT) / Baseline α-Gal A activity / 10 μM migalastat α-Gal A activity: mean ± SEM; for Baseline α-Gal A activity (% WT): absence of migalastat; for Baseline α-Gal A activity / 10 μM migalastat α-Gal A activity: lysates of HEK-293 cells transfected with the mutant form; for Baseline α-Gal A activity: incubated 5 days in the absence of migalastat; for 10 μM migalastat α-Gal A activity: incubated 5 days with 10 μM migalastat. In outline: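 HEK-293 cells transiently transfected with mutant α-Gal A and incubated with or without 10 μM migalastat; lysate activity given as nmol free 4-MU released per mg protein per hour. Values are mean±SEM.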

B1: K130N (protein)
chain: MQLRNPELHLGCALALRFLALVSWDIPGARALDNGLARTPTMGWLHWERFMCNLDCQEEPDSCISEKLFMEMAELMVSEGWKDAGYEYLCIDDCWMAPQRDSEGRLQADPQRFPHGIRQLANYVHSKGLNLGIYADVGNKTCAGFPGSFGYYDIDAQTFADWGVDLLKFDGCYCDSLENLADGYKHMSLALNRTGRSIVYSCEWPLYMWPFQKPNYTEIRQYCNHWRNFADIDDSWKSIKSILDWTSFNQERIVDVAGPGGWNDPDMLVIGNFGLSWNQQVTQMALWAIMAAPLFMSNDLRHISPQAKALLQDKDVIAINQDPLGKQGYQLRQGDNFEVWERPLSGLAWAVAMINRQEIGGPRSYTIAVASLGKGVACNPACFITQLLPVKRKLGFYEWTSRLRSHINPTGTVLLQLENTMQMSLKDLL
In the case of B1, the “Absolute increase (% WT)” value came to 10.1 % WT, the Relative increase is on record as 1.5, the “10 μM migalastat α-Gal A activity (% WT)” value was found to be 31.5 ± 3 % WT and the “Baseline α-Gal A activity (% WT)” value was found to be 21.5 ± 1.9 % WT. The “Baseline α-Gal A activity” value came to 8597 ± 678 nmol/mg/h and the “10 μM migalastat α-Gal A activity” value was 12595 ± 989 nmol/mg/h.

B2: L131V (protein)
chain: MQLRNPELHLGCALALRFLALVSWDIPGARALDNGLARTPTMGWLHWERFMCNLDCQEEPDSCISEKLFMEMAELMVSEGWKDAGYEYLCIDDCWMAPQRDSEGRLQADPQRFPHGIRQLANYVHSKGLKVGIYADVGNKTCAGFPGSFGYYDIDAQTFADWGVDLLKFDGCYCDSLENLADGYKHMSLALNRTGRSIVYSCEWPLYMWPFQKPNYTEIRQYCNHWRNFADIDDSWKSIKSILDWTSFNQERIVDVAGPGGWNDPDMLVIGNFGLSWNQQVTQMALWAIMAAPLFMSNDLRHISPQAKALLQDKDVIAINQDPLGKQGYQLRQGDNFEVWERPLSGLAWAVAMINRQEIGGPRSYTIAVASLGKGVACNPACFITQLLPVKRKLGFYEWTSRLRSHINPTGTVLLQLENTMQMSLKDLL
With B2, the “Absolute increase (% WT)” value was 12.7 % WT, the Relative increase worked out at 1.3, the “10 μM migalastat α-Gal A activity (% WT)” value worked out at 53.2 ± 5.3 % WT and the “Baseline α-Gal A activity (% WT)” value is 40.5 ± 2.8 % WT. Besides, the “Baseline α-Gal A activity” value was found to be 18644 ± 1664 nmol/mg/h and the “10 μM migalastat α-Gal A activity” value amounted to 24913 ± 3151 nmol/mg/h.

B3: K130Q (protein)
chain: MQLRNPELHLGCALALRFLALVSWDIPGARALDNGLARTPTMGWLHWERFMCNLDCQEEPDSCISEKLFMEMAELMVSEGWKDAGYEYLCIDDCWMAPQRDSEGRLQADPQRFPHGIRQLANYVHSKGLQLGIYADVGNKTCAGFPGSFGYYDIDAQTFADWGVDLLKFDGCYCDSLENLADGYKHMSLALNRTGRSIVYSCEWPLYMWPFQKPNYTEIRQYCNHWRNFADIDDSWKSIKSILDWTSFNQERIVDVAGPGGWNDPDMLVIGNFGLSWNQQVTQMALWAIMAAPLFMSNDLRHISPQAKALLQDKDVIAINQDPLGKQGYQLRQGDNFEVWERPLSGLAWAVAMINRQEIGGPRSYTIAVASLGKGVACNPACFITQLLPVKRKLGFYEWTSRLRSHINPTGTVLLQLENTMQMSLKDLL
As for B3, the “Absolute increase (% WT)” value was determined as 12.0 % WT, the Relative increase is reported as 1.4, the “10 μM migalastat α-Gal A activity (% WT)” value came to 47.8 ± 3.1 % WT and the “Baseline α-Gal A activity (% WT)” value is reported as 35.8 ± 2.6 % WT. In addition, the “Baseline α-Gal A activity” value came to 11880 ± 450 nmol/mg/h and the “10 μM migalastat α-Gal A activity” value came to 16001 ± 701 nmol/mg/h.
